Reference: US11976099B2, “Compositions and methods for treatment of bone associated diseases” (THE NATIONAL INSTITUTE FOR BIOTECHNOLOGY IN THE NEGEV LTD., priority 2016, dated 2024)

How the values were obtained:
[1] = test system: MDA-MB-231 breast cancer cells; assay: Direct cell binding assay, flow cytometry, MDA-MB-231; format: cell-based, human; conditions: for direct cell binding: 1 μM, 2.5 μM and 7.5 μM labeled protein; for relative cell binding ability: MDA-MB-231
Protocol: M-CSFM and two variants of M-CSFRGD (4.22 and 5.6) were labeled with a molar ratio of 1:1 of DyLight™ 488 NHS Ester (Thermo Fisher Scientific, USA) and the purified protein. The solution was incubated for 1 h at room temperature and the residual unbound dye was washed three times with Vivaspin (GE Healthcare life sciences, UK) with a 3,000 Da cutoff. […] MDA-MB-231 breast cancer cells were used for direct cell binding of the purified proteins. Cells were plated at a density of 10^5 per well in 96-well plates and were washed with […] of PBSA 0.1%. The cells were centrifuged at 150 g for 5 min, and the supernatant was removed; this step was repeated twice. Then, the labeled M-CSFRGD protein variants and the M-CSFM monospecific control were added in IBB+1% BSA to the cells at different concentrations (1, 2.5 and 7.5 μM) in a total volume of 100 μl and incubated at 4° C. with gentle agitation for 2 h. For c-FMS expression, the cells were stained with PE-anti human CD115 (BioLegend, USA) at a dilution of 1:50 and for αvβ3 integrin expression with FITC-anti human β3 integrin (BioLegend, USA) at a dilution of 1:25 for 30 min. Then, the cells were washed twice as described above and analyzed with Accuri C6 flow cytometry analyzer (BD Biosciences, USA). The mean fluorescence of the cells was subtracted from the other samples. The experiment was repeated three times at each concentration.
Assays for direct cell binding were conducted on breast cancer cell line MDA-MB-231 and murine primary cells with flow cytometer. MDA-MB-231 was used because the cells express αvβ3 integrin and c-FMS on the cell membrane, a protein expression pattern that imitates the osteoclast state just before reaching full differentiation and maturation. […] Murine primary cells that were obtained from bone marrow were tested for binding without any induction of differentiation (t=0). Such cells express high levels of c-FMS and low levels of αvβ3 integrin (FIGS. 11A and 11B), a state that imitates an early osteoclast differentiation stage.

[2] = target: human c-FMS (Homo sapiens, UniProt P07333); assay: c-FMS phosphorylation assay in CD14+ monocytes (western blot); format: cell-based; parameters: host or cells: human peripheral blood CD14+ monocytes; conditions: CD14+ cells; 0.5 nM human M-CSFWT + 100 nM variant
Sequence of human c-FMS (P07333 20-972): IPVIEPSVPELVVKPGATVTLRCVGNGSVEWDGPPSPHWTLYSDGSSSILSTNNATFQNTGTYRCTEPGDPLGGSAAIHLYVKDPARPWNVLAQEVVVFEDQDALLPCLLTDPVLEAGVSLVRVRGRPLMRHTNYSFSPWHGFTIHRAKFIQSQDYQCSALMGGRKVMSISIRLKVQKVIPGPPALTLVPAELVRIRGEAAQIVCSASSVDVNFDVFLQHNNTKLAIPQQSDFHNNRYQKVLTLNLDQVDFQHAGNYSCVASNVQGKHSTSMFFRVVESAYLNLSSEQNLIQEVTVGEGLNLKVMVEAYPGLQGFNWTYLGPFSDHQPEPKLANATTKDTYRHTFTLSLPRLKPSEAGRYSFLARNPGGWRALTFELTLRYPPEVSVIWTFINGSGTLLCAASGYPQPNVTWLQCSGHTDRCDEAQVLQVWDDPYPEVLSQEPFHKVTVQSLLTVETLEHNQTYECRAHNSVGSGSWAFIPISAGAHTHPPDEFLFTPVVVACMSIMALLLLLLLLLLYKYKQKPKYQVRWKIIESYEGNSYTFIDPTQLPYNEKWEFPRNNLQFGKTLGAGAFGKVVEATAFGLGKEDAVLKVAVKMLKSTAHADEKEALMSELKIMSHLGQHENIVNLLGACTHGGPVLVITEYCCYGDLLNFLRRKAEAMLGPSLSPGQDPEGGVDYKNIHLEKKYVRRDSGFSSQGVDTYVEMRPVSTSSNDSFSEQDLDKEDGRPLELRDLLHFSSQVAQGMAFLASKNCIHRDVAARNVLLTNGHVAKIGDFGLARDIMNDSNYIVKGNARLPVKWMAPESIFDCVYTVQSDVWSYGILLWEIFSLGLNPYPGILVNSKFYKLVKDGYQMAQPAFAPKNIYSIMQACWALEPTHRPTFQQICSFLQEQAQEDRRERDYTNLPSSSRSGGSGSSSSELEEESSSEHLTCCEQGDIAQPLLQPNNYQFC
Protocol: Phosphorylation assay—The experiment was performed on two cell types, BMMs and human peripheral blood CD14^+ monocytes, as follows: (i) BMMs from wild-type C57BL6 mice were purified by flushing the bone marrow from the femur and tibia as previously described (Levaot, N., Simoncic, P. D., Dimitriou, I.D., Scoffer, A., La Rose, J., Ng, A. H. M. et al. (2011) J. Clin. Invest. 121, 3244-3257). The cells were treated with ACK red cells lysis buffer (ThermoFisher Scientific, USA) and grown in complete α-MEM growth medium (Sigma-Aldrich, USA) containing 10% fetal bovine serum (FBS) (selected to not contain LPS to prevent macrophage differentiation), penicillin, streptomycin and L-glutamine. Recombinant murine M-CSF was added at a concentration of 40 ng/ml (Peprotech, Israel) for three days at 37° C. to induce adhesion and proliferation of monocytes. Then, 7×10^5 cells were transferred into a 6-well plate with complete α-MEM and 20 ng/ml murine M-CSF and RANKL (R&D Systems, USA) for 48 h. (ii) CD 14^+ monocytes (Lonza, Switzerland) were grown in complete α-MEM medium for five days in the presence of human M-CSF (20 ng/mL). […] The images were quantified using ImageJ. The quantified intensity values of the phosphorylated c-FMS for each sample were divided by the total c-FMS intensity, and then by the β-actin expression intensity. […]

Molecule | direct cell binding [1] | relative cell binding ability [1] | c-FMS phosphorylation level [2]
M-CSFM: 158 amino acid M-CSF with cysteine at position 31 replaced by serine (SEQ ID NO: 2) (protein) EEVSEYCSHMIGSGHLQSLQRLIDSQMETSSQITFEFVDQEQLKDPVCYLKKAFLLVQDIMEDTMRFRDNTPNAIAIVQLQELSLRLKSCFTKDYEEHDKACVRTFYETPLQLLEKVKNVFNETKNLLDKDWNIFSKNCNNSFAECSSQGHERQSEGS | showed binding | weakest binder | acted as an agonist, inducing phosphorylation
M-CSFC31S,M27R: M-CSF double mutant containing both C31S and M27R; monomeric, monospecific c-FMS antagonist (protein) EEVSEYCSHMIGSGHLQSLQRLIDSQRETSSQITFEFVDQEQLKDPVCYLKKAFLLVQDIMEDTMRFRDNTPNAIAIVQLQELSLRLKSCFTKDYEEHDKACVRTFYETPLQLLEKVKNVFNETKNLLDKDWNIFSKNCNNSFAECSSQGHERQSEGS |  |  | decreased phosphorylation of c-FMS
5.6: bispecific M-CSFRGD variant from sort five; M-CSFM loop replaced by XXXRGDXXX motif; binds c-FMS and αvβ3 integrin (protein, left off: small tags and cut ends) EEVSEYCSHMIGSGHLQSLQRLIDTYPRGDMCSITFEFVDQEQLKDPVCYLKKAFLLVQDIMEDTMRFRDNTPNAIAIVQLQELSLRLKSCFTKDYEEHDKACVRTFYETPLQLLEKVKNVFNETKNLLDKDWNIFSKNCNNSFAECSSQGHERQSEGS | showed binding | best binding ability | 
